Experimental data: patent US20240124590A1 (ULTRAHUMAN EIGHT, published 2024)

Columns and labels:
[1] = biological target: T1, human PD1 human Fc tagged recombinant protein (human, UniProt Q15116 25-170, limits assumed); assay: direct ELISA, Fab on coated PD1-Fc
T1 construct: also called huPD1-Fc; huPD-1-Fc; not shown: human Fc tag
Protocol: (§1) Binding and cross-reactivity of the lead panel to the recombinant proteins was initially assessed by binding ELISA. The human PD1 human Fc tagged recombinant protein and the cynomolgus monkey PD1 human Fc tagged recombinant protein were coated to the surface of MaxiSorp™ flat-bottom 96 well plate at 1 μg/ml. […] The Fabs were detected using mouse anti-c-myc antibody followed by donkey anti-mouse IgG conjugated to horseradish peroxidase. The IgGs were detected using the mouse anti-human IgG conjugated to horseradish peroxidase. Binding signals were visualized with 3,3′,5,5′-Tetrannethylbenzidine Substrate Solution (TMB) and the absorbance measured at 450 nm.
(§2) The top 12 clones were also expressed as Fab protein from E. coli expression, purified to homogeneity, quantified, and applied in direct ELISA binding analyses on human PD1-Fc and cyno PD1-Fc (FIGS. 2A&B, Table 5).

[2] = biological target: T2, cynomolgus monkey PD1 human Fc tagged recombinant protein (cynomolgus monkey, UniProt Q15116 25-170 (human entry), limits assumed); assay: direct ELISA, Fab on coated PD1-Fc
T2 construct: also called cyPD1-Fc; cyPD-1-Fc; not shown: human Fc tag
T2 chain: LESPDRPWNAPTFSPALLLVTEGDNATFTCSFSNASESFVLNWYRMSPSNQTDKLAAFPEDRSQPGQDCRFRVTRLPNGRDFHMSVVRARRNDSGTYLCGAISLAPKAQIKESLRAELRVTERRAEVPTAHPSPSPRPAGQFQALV
Protocol: as §1, §2

[3] = biological target: T3, cynomolgus monkey PD1 His tag (monomeric) (cynomolgus monkey, UniProt Q15116 25-170 (human entry), limits assumed); assay: SPR (Biacore), IgG captured, monomeric PD1-His analyte
T3 construct: Soluble monomeric analyte; whole entry named; also called monomeric cyno PD1; not shown: His tag
T3 chain: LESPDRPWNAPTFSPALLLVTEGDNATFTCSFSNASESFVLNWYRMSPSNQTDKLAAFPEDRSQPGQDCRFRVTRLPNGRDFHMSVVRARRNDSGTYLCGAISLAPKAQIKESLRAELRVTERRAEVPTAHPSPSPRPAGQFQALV
Protocol: (§3) Affinity (KD) of purified IgGs was determined via SPR with antigen in-solution on a Biacore 3000 (GE). A mouse anti-human antibody (CH1 specific) was immobilized on a CM5 Sensor Chip to a level of 2000 RU in acetate buffer at pH 4.5 using amine coupling following the Wizard instructions for two channels. One channel was used for background signal correction. The standard running buffer HBS-EP pH 7.4 was used. Regeneration was performed with a single injection of 10 μl of 10 mM Glycine at pH 1.5 at 20 μl/minute. IgG samples were injected for 2 minutes at 50 nM at 30 μl/min followed by and off-rate of 60 seconds. […] The obtained sensorgrams were analysed using the Biacore 3000 evaluation (BIAevaluation) software. The KD was calculated by simultaneous fitting of the association and dissociation phases to a 1:1 Langmuir binding model.
(§4) Biacore analyses of binding affinity was performed for all IgGs to solution-phase, monomeric human and cyno PD1 proteins.

[4] = biological target: T4, human PD1 His tagged (monomeric) (human, UniProt Q15116 25-170, limits assumed); assay: as above
T4 construct: Soluble monomeric analyte; whole entry named; also called monomeric human PD1; not shown: His tag
Protocol: as §3, §4

[5] = biological target: T5, human PD1 expressed on cells (human, UniProt Q15116 25-288); assay: cell-based or functional assay
[6] = biological target: T5, human PD1 expressed on cells; assay: flow cytometry, PD1 CHO-K1 cells
Protocol: (§5) Purified IgGs were tested in FACs for binding to human and cyno PD1 expressed on CHO-K1 stable cell lines and CHO-K1 wild-type cells. […] Binding of IgGs was detected with a mouse anti-human IgG conjugated to FITC. Results were analyzed by examining the Mean Fluorescence Intensity (MFI) of 10000 cells per sample in the BL-1 channel detector of a flow cytometer (Attune™ NxT Acoustic Focusing Cytometer, Invitrogen/ThermoFisher Scientific).
(§6) Antibodies to PD1 were analysed for concentration-dependent binding at the cell surface via flow cytometry. Initial analyses were performed on CHO cells stably-transfected with human or cyno PD1.

[7] = biological target: T6, cyno PD1 expressed on CHO-K1 cells (cynomolgus monkey, UniProt Q15116 25-288 (human entry)); assay: flow cytometry, PD1 CHO-K1 cells
T6 construct: also called cyno PD1+ CHO cells
T6 chain: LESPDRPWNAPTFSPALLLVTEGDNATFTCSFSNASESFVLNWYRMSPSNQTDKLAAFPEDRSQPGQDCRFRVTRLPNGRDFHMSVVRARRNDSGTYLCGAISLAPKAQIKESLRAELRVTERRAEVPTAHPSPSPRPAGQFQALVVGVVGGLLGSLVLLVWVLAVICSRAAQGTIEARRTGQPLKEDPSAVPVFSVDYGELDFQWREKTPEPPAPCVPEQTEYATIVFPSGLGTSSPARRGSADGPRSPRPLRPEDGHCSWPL
Protocol: as §5, §6

[8] = biological target: T1, human PD1 human Fc tagged recombinant …; assay: direct ELISA, IgG1null on coated PD1-Fc
Protocol: as §1
(§7) The purified IgGs described above were then tested for binding to human and cyno PD1-Fc in direct titration ELISA format. […] As the ELISA EC50 values for directly binding IgGs are strongly influenced by avidity, rather than true 1:1 binding affinity, we then proceeded to perform higher-sensitivity, solution-phase epitope competition and Biacore binding affinity determinations, as outlined below.

[9] = biological target: T2, cynomolgus monkey PD1 human Fc tagged …; assay: direct ELISA, IgG1null on coated PD1-Fc
Protocol: as §1, §7

[10] = biological target: T7, human FZD5 (frizzled class receptor 5) on transfected HEK293 cells (human, UniProt Q13467 27-585); assay: cell microarray re-array, transfected HEK293
T7 construct: also called FZDS; FZ5
Protocol: (§8) Antibody binding was detected using AF647 fluorescent secondary anti-human IgG1 antibody. Primary hits (duplicate spots) were identified by analysing fluorescence (AF647 and ZsGreen1) on ImageQuant. Vectors encoding all hits were sequenced to confirm their correct identities. […] Slides were analysed as above. Flow cytometry confirmation screen: Expression vectors encoding ZsGreen1 only, or ZsGreen1 and PD1, FZDS, KDR or ULBP2, were transfected into human HEK293 cells. Each live transfectant was incubated with […] of each of the test antibodies and the Isotype control antibody. Cells were washed, and incubated with the same AF647 anti-human IgG Fc detection antibody as used in the cell microarray screens. Cells were again washed, and analysed by flow cytometry using an Accuri flow cytometer (BD). A 7AAD live/dead dye was used to exclude dead cells, and ZsGreen1-positive cells (i.e. transfected cells) were selected for analyses.

[11] = biological target: T8, human ULBP2 (UL16 binding protein 2) on transfected HEK293 cells (human, UniProt Q9BZM5 26-217); assay: cell microarray re-array, transfected HEK293
T8 sequence: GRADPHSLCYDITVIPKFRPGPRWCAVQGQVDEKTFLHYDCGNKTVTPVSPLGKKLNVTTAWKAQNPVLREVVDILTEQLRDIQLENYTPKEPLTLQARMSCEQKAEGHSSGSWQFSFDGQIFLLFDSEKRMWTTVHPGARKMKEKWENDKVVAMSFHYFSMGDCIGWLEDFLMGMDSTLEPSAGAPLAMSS
Protocol: as §8

[12] = biological target: T9, human KDR (VEGFR2) on cells (human, UniProt P35968 20-1356); assay: cell microarray re-array, transfected HEK293
T9 construct: Transfected HEK293 cells (arrays, flow cytometry) and human VEGFR2 reporter cells
Protocol: as §8

[13] = biological target: T10, biotinylated human PD1-His/AviTag (human, UniProt Q15116 25-170, limits assumed, biotinylated); assay: Alphascreen competition vs IgG1-Mab005 (humanized)
T10 construct: Alphascreen antigen; whole entry named; also called biotinylated monomeric human PD1; not shown: His/AviTag
Protocol: The AlphaScreen assay (Perkin Elmer) was performed in a 25 μl final volume in 384-well white microtiter plates (Greiner). The reaction buffer contained 1×PBS pH 7.3 (Oxoid, Cat. nr. BRO014G) and 0.05% (v/v) Tween® 20 (Sigma, Cat. nr. P9416). Purified IgG samples were titrated in three fold serial dilutions starting at 500 nM final concentration and incubated with biotinylated human PD1-His/AviTag at 0.6 nM final concentration for 20 minutes at room temperature. […] Followed by addition of the Streptavidin Donor beads at 20 μg/ml (final concentration) and incubation for 30 minutes at room temperature. The emission of light was measured in the EnVision multilabel plate reader (Perkin Elmer) and analysed using the EnVision manager software. Values were reported as Counts Per Second (CPS) and corrected for crosstalk.

[14] = biological target: T1, human PD1 human Fc tagged recombinant …; assay: direct ELISA, IgG1null on coated PD1-Fc; remark: listed apart in the source
Protocol: as §1, §7

[15] = biological target: T2, cynomolgus monkey PD1 human Fc tagged …; assay: direct ELISA, IgG1null on coated PD1-Fc
Protocol: as §1, §7

T5 sequence (Q15116 25-288 limits assumed): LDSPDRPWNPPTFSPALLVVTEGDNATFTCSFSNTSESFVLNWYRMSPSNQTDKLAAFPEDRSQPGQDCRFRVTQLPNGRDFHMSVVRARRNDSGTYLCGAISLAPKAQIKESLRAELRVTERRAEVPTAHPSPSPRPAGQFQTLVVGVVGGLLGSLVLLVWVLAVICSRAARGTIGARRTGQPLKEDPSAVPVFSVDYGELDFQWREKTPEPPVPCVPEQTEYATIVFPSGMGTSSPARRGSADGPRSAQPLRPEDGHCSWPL
T10 sequence (Q15116 25-170 limits assumed): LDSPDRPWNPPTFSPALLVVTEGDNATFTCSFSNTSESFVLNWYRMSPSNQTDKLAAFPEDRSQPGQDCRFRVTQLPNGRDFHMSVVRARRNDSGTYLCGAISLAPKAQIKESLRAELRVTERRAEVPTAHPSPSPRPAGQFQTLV
T1 sequence (Q15116 25-170 limits assumed): as above
T4 sequence (Q15116 25-170 limits assumed): as above
T9 sequence (P35968 20-1356 limits assumed): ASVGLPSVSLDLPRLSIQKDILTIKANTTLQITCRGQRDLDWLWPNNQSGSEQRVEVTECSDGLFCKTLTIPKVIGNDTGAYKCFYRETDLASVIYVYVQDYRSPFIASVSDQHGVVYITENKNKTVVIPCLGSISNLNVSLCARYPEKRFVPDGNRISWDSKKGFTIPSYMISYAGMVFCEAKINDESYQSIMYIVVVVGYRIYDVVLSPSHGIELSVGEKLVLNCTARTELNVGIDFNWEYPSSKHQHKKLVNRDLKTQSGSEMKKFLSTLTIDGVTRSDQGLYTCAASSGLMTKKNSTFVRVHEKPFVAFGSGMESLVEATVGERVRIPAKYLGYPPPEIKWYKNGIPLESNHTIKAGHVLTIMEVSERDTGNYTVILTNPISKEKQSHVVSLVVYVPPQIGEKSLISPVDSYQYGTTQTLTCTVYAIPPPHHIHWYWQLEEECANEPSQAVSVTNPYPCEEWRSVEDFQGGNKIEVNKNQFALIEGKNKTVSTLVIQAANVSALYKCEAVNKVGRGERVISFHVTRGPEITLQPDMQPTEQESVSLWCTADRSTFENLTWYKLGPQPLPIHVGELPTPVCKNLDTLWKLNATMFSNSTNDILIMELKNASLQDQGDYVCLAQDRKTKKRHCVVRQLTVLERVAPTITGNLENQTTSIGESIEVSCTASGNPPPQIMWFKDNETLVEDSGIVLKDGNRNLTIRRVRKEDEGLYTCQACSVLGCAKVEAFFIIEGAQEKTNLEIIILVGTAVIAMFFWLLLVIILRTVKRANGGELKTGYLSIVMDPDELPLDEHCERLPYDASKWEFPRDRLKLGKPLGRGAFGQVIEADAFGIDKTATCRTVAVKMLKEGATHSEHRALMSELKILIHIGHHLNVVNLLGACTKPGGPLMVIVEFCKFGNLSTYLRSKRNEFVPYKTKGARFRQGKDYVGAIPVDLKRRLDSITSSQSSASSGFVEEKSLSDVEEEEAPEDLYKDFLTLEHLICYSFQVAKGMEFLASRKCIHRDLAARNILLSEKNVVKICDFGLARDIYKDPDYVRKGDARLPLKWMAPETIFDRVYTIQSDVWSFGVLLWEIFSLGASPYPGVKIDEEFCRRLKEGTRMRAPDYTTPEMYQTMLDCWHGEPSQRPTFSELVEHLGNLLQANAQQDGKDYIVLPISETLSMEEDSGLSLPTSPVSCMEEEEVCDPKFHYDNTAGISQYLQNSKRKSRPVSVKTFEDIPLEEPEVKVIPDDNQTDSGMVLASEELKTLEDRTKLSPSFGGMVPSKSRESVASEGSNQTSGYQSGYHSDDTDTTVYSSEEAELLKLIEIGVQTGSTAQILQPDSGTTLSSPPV
T7 sequence (Q13467 27-585 limits assumed): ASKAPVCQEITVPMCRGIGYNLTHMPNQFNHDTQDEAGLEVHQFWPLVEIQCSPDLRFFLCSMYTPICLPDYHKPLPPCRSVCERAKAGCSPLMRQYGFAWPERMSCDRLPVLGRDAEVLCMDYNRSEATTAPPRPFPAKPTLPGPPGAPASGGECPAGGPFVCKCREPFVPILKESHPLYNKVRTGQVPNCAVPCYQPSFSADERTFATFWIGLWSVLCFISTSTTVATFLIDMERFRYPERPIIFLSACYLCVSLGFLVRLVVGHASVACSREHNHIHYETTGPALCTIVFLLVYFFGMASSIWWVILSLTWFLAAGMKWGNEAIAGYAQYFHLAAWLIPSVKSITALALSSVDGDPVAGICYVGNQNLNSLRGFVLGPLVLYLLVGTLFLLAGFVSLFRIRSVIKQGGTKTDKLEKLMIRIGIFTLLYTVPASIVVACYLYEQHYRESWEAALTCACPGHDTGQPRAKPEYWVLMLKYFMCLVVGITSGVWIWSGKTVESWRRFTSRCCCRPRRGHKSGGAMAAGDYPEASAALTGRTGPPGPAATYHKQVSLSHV

Row | EC50 [1] | EC50 [2] | Kd [3] | koff [3] | kon [3] | Kd [4] | koff [4] | kon [4] | EC50 (ng/ml), IgG1null blockade of human PD1/PD-L1 [5] | EC50 [6] | EC50 [7] | EC50 [8] | EC50 [9] | binding result [10] | binding result [11] | binding result [12] | IC50 [13] | EC50 [14] | EC50 [15] | Binder
1 | 0.743 nM | 1.01 nM | – | – | – | – | – | – | – | – | – | – | – | – | – | – | – | – | – | Fab06D02 (Fab, V domains shown, Human Fab from E. coli, His/c-myc tags) VH: EVQLVESGGGLVQPGGSLRLSCAASGFTFSSYLMSWVRQAPGKGLEWVATISGGGSETYYVDSVKGRFTISRDNAKNSLYLQMNSLRAEDTAVYYCARQLYGFDYWGQGTLVTVSS VL: not shown
2 | 1.25 nM | – | – | – | – | – | – | – | – | – | – | – | – | – | – | – | – | – | – | Fab-Mab005 (Fab, V domains shown, Purified monomeric human Fab from E. coli, His tag, detected by c-myc; also called Mab005 (humanized) Fab) VH: EVQLVESGGGLVQPGGSLRLSCAASGFTFSSYMMSWVRQAPGKGLEWVATISGGGANTYYPDSVKGRFTISRDNAKNSLYLQMNSLRAEDTAVYYCARQLYYFDYWGQGTTVTVSS VL: DIQMTQSPSSLSASVGDRVTITCLASQTIGTWLTWYQQKPGKAPKLLIYTATSLADGVPSRFSGSGSGTDFTLTISSLQPEDFATYYCQQVYSIPWTFGGGTKVEIK
3 | – | – | 6.9 nM | 0.00097 s⁻¹ | 140000 M⁻¹ s⁻¹ | 2.57 nM | 0.00046 s⁻¹ | 180000 M⁻¹ s⁻¹ | 212 ng/mL | 1.87 nM | 1.33 nM | 0.125 nM | 0.0959 nM | no binding (tested: 5 µg/ml) | no binding (tested: 5 µg/ml) | no binding (tested: 5 µg/ml) | 3 nM | – | – | IgG1-14 (antibody, V domains shown, Designer; human IgG1null + Ckappa; also called Antibody IgG1-14) VH: EVQLVESGGGLVQPGGSLRLSCAASGFTFSSYLMSWVRQAPGKGLEWVATISGGGSEKYYVDSVKGRFTISRDNAKNSLYLQMNSLRAEDTAVYYCARQLYAFDYWGQGTLVTVSS VL: not shown
4 | 0.708 nM | 1.4 nM | – | – | – | – | – | – | – | – | – | – | – | – | – | – | – | – | – | Fab12H04 (Fab, V domains shown, Human Fab from E. coli, His/c-myc tags) VH: EVQLVESGGGLVQPGGSLRLSCAASGFTFSSYLMSWVRQAPGKGLEWVATISGGGAEKYYVDSVKGRFTISRDNAKNSLYLQMNSLRAEDTAVYYCARQLYGFDYWGQGTLVTVSS VL: not shown
5 | – | – | 4.7 nM | 0.00064 s⁻¹ | 140000 M⁻¹ s⁻¹ | 1.6 nM | 0.00032 s⁻¹ | 200000 M⁻¹ s⁻¹ | 188 ng/mL | 1.95 nM | 2.17 nM | – | – | – | – | – | 4.01 nM | 0.112 nM | 0.12 nM | IgG1-12H04 (antibody, V domains shown, Library-derived; human IgG1null + Ckappa) VH: EVQLVESGGGLVQPGGSLRLSCAASGFTFSSYLMSWVRQAPGKGLEWVATISGGGAEKYYVDSVKGRFTISRDNAKNSLYLQMNSLRAEDTAVYYCARQLYGFDYWGQGTLVTVSS VL: not shown
6 | – | – | 7.1 nM | 0.00073 s⁻¹ | 100000 M⁻¹ s⁻¹ | 3.01 nM | 0.0004 s⁻¹ | 130000 M⁻¹ s⁻¹ | 172 ng/mL | 0.978 nM | 0.861 nM | 0.0492 nM | 0.0498 nM | no binding (tested: 5 µg/ml) | no binding (tested: 5 µg/ml) | no binding (tested: 5 µg/ml) | 1.41 nM | – | – | IgG1-11 (antibody, V domains shown, Designer; human IgG1null + Ckappa; also called Antibody IgG1-11) VH: EVQLVESGGGLVQPGGSLRLSCAASGFTFSSYLMSWVRQAPGKGLEWVATISGGGSEKYYVDSVKGRFTISRDNAKNSLYLQMNSLRAEDTAVYYCARQLYFFDYWGQGTLVTVSS VL: not shown
